Reference: patent US9416162B2, “Peptides having reduced toxicity that stimulate cholesterol efflux” (The Regents of the University of California, priority 2013, dated 2016)
Entries after “also recorded” stand apart in the source; their conditions may differ. Non-standard residues stand in square brackets, D forms with d. No end group written: not given here. Cit = NC(=O)NCCC[C@H](N)C(=O)O

Columns and labels:
cynomolgus monkeys = assay: IV infusion toxicity in cynomolgus monkeys (ALT, AST, CPK, bilirubin); assay type: in vivo, cynomolgus monkey
Experimental: Male (upper panel) and female lower panel) cynomolgus monkeys were administered ATI-5261 at a fixed dose of 100 mg/kg by IV infusion (60 min) every 96 hours for a total of 4 injections. Blood was collected 24 h post infusion and levels of plasma ALT, AST, creatine kinase (CPK), and total and indirect bilirubin were determined Values are expressed as a fold-increase vs. pre-dose levels.

ABCA1 [1] = target: T1, ABCA1 (Mus musculus, UniProt P41233); assay: ABCA1-dependent [3H]cholesterol efflux from J774 macrophages with and without cAMP; assay type: cell-based; design: ABCA1-dependent cholesterol efflux: dose or concentration left out as unconfirmed
T1 construct: treated (18 h) with a cAMP analog to induce ABCA1 protein expression; endogenous in cells; host or cells: J774 macrophages

human plasma = assay: Cholesterol efflux activity of human plasma treated with lipid-free peptide (J774 cells); assay type: cell-based; details: human plasma with 300 μg/ml peptide 5 minutes (4° C.), diluted to 1%, cAMP treated J774 cells, vs vehicle-treated plasma
Experimental: (§1) To test whether CS6253 exerts anti-atherogenic effects in a biological milieu, human plasma was exposed (5 min) to lipid-free peptide. Interactions of CS6253 with HDL and activity of plasma to stimulate cholesterol efflux was assessed, using J774 macrophages labeled with [^3H]cholesterol. Panel A—Cholesterol efflux activity of plasma treated with lipid-free peptides. Human plasma was incubated with 300 μg/ml peptides for 5 minutes (4° C.), diluted to 1% in serum-free RPMI-1640 culture medium and immediately added to [^3H]cholesterol-labeled J774 cells. […] Panel B—Induction of preβ HDL upon treatment of human plasma with CS6253. Plasma was exposed to a small amount of peptide relative to endogenous apoA-I (1:10 mole ratio, respectively) and formation of preβ HDL assessed by 2D non-denaturing gradient gel electrophoresis (NDGGE) and western blot analysis. […] This is consistent with no peptide being associated with the preβ HDL fraction, indicating the particles were authentic preβ particles composed on endogenous apoA-I.

ABCA1 [2] = target: T1, ABCA1; assay: ABCA1-dependent [3H]cholesterol efflux from J774 macrophages with and without cAMP; assay type: cell-based
Description: Suitable cholesterol efflux assays are described in, e.g., Bielicki, J. K and Oda, M. N., Biochemistry, 41:2089-2096 (2002); Jia et al., Biochem. Biophys. Res. Common., 297:206-213 (2002). In some embodiments, a polypeptide known to mediate cholesterol efflux (e.g., helix 9/10 of Apo A-I) is used to screen for additional mediators of cholesterol efflux in a cell based assay. For example, cell lines in which cholesterol efflux can be enhanced using a cAMP analog that up-regulates ABCA1 protein expression (e.g., J774 macrophages) can conveniently be used to assess the ability of a polypeptide of the present invention to mediate cholesterol efflux. The cells are incubated with labeled cholesterol (e.g., [^3H]cholesterol) under conditions appropriate for cholesterol uptake by the cells. Thus, cAMP or cAMP analogs (e.g., CPT-cAMP) are incubated with the cells for a suitable time before the initiation of cellular cholesterol efflux, i.e., prior to contacting the cells with a test polypeptide. Measurement of labeled cholesterol appearing in the medium is used to determine the cholesterol efflux mediating activity of the test polypeptide.
Aliphatic analogs of ATI-5261 lacking phenylalanine residues retained potent ABCA1 selective cholesterol efflux activity (FIG. 7). J774 macrophages were labeled (48 h) with [^3H]cholesterol and treated (18 h) with a cAMP analog to induce ABCA1 protein expression; cells incubated in the absence of cAMP (left bars) served as controls. […] Peptides were used at a concentration of 30 μg/ml, which was maximal for promoting cholesterol efflux activity. Panel B—Dependence of cholesterol efflux on the concentration of peptides. […] Results are expressed as the difference in cholesterol efflux (%/4 h) observed using cAMP treated vs. non-treated J774 cells. Values are means±SD, n=3.

ABCG1 = target: T2, ABCG1 (Homo sapiens, UniProt P45844); assay: ABCG1 mediated cholesterol efflux from BHK cells stably transfected with ABCG1; assay type: cell-based; details: BHK cells ABCG1 vs. mock transfected, 50 μg peptide/ml serum-free medium
T2 construct: expressed in transfected cells; host or cells: BHK cells, stably transfected
Experimental: To further evaluate potential anti-atherogenic mechanisms of CS6253, BHK cells stably transfected with ABCG1 and mock-transfected control cells were labeled with [3H]cholesterol and used in efflux experiments. The citrulline form of LeuATI-5261 (CS6253) lipidated with POPC and ATI-5261 were used as cholesterol efflux acceptors at 50 μg peptide/ml serum-free medium. Panel A—Time-course for ABCG1 mediated cholesterol efflux from cells to lipid-free CS6253 peptide or CS6253:POPC complexes. […] Panel B—Comparison between CS6253 and ATI-5261 in mediating cellular cholesterol efflux via ABCG1. [3H]cholesterol labeled BHK cells (ABCG1 vs. mock transfected) were incubated with either lipid-free peptide or peptides formulated with POPC.

apoE−/− mice = assay: Macrophage reverse cholesterol transport (RCT) to feces in vivo; design: species or system mouse; details: male apoE−/− mice, IP lipid-free peptide 10 or 30 mg/kg
Experimental: J774 macrophage foam-cells (acetylated LDL, 100 μg/ml) labeled with [^3H]cholesterol were injected IP into male, atherosclerotic apoE deficient (apoE^−/−) mice 5 months of age together with vehicle alone (PBS) or with lipid-free CS6253 peptide at doses of 10 or 30 mg/kg. Feces were collected at 24 h for assessment of [^3H]sterol. Values are means±SD, n=5 mice per group.

HDL in human plasma = assay: preβ HDL formation in human plasma, 2D NDGGE and western blot
Experimental: as §1

[3] = cAMP treated J774 cells, increasing concentration of peptides, 4 h

T1 sequence (P41233 whole entry): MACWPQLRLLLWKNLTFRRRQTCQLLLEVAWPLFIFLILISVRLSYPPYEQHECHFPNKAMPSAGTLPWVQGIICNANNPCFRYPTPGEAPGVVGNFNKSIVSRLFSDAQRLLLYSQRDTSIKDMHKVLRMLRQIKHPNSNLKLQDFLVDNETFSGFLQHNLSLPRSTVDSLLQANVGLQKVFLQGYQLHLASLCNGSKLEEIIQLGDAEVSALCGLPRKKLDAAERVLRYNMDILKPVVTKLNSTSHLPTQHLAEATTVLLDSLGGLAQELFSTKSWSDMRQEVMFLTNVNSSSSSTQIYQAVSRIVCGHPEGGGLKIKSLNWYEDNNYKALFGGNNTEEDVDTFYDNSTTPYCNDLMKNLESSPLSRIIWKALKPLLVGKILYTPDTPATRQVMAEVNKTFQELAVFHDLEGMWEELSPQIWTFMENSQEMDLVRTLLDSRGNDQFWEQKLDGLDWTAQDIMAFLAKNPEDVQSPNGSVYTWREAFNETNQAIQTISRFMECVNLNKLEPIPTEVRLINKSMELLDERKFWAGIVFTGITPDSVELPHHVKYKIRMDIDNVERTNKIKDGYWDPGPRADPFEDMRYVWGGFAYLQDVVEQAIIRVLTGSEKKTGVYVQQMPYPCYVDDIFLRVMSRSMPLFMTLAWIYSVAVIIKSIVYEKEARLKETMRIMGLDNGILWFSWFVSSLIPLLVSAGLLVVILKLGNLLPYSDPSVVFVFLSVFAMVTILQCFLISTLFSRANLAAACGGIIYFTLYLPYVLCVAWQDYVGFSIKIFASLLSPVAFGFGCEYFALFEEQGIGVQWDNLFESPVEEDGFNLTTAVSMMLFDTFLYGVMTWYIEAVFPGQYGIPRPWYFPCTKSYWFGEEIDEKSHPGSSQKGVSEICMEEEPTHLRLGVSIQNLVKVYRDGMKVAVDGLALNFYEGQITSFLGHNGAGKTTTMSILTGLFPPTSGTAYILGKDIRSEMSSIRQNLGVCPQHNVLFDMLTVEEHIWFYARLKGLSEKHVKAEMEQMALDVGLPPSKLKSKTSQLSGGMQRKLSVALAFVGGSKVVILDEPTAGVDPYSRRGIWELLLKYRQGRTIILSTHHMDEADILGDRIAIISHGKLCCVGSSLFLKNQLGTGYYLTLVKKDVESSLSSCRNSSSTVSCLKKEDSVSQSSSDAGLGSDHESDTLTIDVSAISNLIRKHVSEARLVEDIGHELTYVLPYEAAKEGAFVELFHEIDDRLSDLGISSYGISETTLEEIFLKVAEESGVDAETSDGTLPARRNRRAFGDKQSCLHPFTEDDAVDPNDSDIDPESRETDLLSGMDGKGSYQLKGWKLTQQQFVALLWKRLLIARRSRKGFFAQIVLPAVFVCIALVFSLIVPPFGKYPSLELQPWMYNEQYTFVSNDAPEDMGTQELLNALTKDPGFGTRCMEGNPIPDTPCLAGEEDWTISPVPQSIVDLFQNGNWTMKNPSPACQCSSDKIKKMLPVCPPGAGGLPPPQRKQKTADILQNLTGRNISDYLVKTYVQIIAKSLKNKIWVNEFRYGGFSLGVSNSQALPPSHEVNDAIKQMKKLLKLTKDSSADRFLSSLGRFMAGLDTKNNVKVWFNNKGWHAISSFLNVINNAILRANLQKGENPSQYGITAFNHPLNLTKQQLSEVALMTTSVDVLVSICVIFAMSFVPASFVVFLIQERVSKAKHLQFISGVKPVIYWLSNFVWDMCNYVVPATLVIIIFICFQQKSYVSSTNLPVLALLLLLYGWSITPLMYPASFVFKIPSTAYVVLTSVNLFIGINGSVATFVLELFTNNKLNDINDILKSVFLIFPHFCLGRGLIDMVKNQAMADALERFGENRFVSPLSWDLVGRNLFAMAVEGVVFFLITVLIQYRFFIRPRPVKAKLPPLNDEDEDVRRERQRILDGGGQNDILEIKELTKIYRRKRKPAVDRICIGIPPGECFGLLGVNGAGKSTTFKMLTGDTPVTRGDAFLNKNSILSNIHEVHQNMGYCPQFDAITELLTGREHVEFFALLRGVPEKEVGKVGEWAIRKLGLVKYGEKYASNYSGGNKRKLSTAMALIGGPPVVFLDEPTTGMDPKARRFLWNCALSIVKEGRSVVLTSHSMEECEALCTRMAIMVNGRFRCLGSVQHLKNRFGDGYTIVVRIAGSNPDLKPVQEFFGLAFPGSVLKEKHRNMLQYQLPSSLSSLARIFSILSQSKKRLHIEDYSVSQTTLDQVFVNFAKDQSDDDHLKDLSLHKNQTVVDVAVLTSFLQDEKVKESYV

Row | Substance | cytotoxic response (ALT, AST, CPK, bilirubin) (cynomolgus monkeys; 100 mg/kg IV infusion (60 min) every 96 hours, 4 injections, blood 24 h post infusion) | plasma creatine kinase (CPK), fold-increase vs. pre-dose levels (cynomolgus monkeys; 100 mg/kg IV infusion, after the first infusion, male and female monkeys) | ABCA1-dependent cholesterol efflux activity (ABCA1 [1]; J774 macrophages with/without cAMP, peptide 10 μg/ml) | capacity of peptide-treated plasma to stimulate cholesterol efflux via ABCA1 (human plasma) | peptide concentration at saturation in cholesterol efflux (ABCA1 [2]; [3]) | ABCG1 mediated cholesterol efflux (ABCG1) | macrophage RCT, [3H]sterol in feces at 24 h (apoE−/− mice) | ABCA1-dependent cholesterol efflux (ABCA1 [1]; J774 with/without cAMP, acceptors lipid-free, 4 h) | association of peptide with HDL species in plasma (HDL in human plasma; antibody against CS6253) | preβ HDL formation (HDL in human plasma; peptide:endogenous apoA-I 1:10 mole ratio, apoA-I antibody) | cholesterol efflux activity compared with parent ATI-5261 (ABCA1 [2]; J774 cells with and without cAMP) | Km (cholesterol efflux potency) on molar basis (ABCA1 [2]; cAMP treated J774, lipid-free peptide, 4 h, Michaelis Menten equation) | Km for cholesterol efflux (ABCA1 [2]; [3])
1 | ATI-5261: HDL mimetic peptide, parent peptide; triglyceride elevating and muscle toxic peptide used as positive control (EVRSKLEEWFAAFREFAEEFLARLKS) [reference compound] | induced a cytotoxic response | marked increase | overall greater efflux response | greater capacity to stimulate cholesterol efflux | roughly 3 μg/ml | poorly active |  |  |  |  |  |  | 
2 | EVCitSKLEEWLAALCitELAEELLARLKS (SEQ ID NO:2) (EV[Cit]SKLEEWLAAL[Cit]ELAEELLARLKS) [CS6253, citrulline form of LeuATI-5261, R3,14→Citrulline, 26-mer] |  |  |  | greater capacity to stimulate cholesterol efflux | 3 µg/mL | relatively poor activity | stimulated macrophage RCT | stimulated ABCA1-dependent cholesterol efflux similar to native apolipoproteins | associated with α-HDL | increase in preβ HDL | identical to that observed using the parent ATI-5261 peptide | near apolipoproteins molar potency | high potency; also recorded: low Km
